Data on three molecules can be found in publication PMC10692916, “Protein arginine N-methyltransferase 2 plays a noncatalytic role in the histone methylation activity of PRMT1” (The Journal of Biological Chemistry, 2023).

The term ΔTm denotes the change in melting temperature against a reference sample.

Data set [1] deals with T1, Protein arginine N-methyltransferase 2 (PRMT2), full-length, wild type (human, UniProt P55345-1 1-433).
T1 construct: PRMT2, human, UniProt P55345-1 as printed; cloned in pET28a(+); also called WT PRMT2; native PRMT2; source: E. coli Arctic Express (DE3), purified (Ni-NTA, Superdex 200 SEC)
T1 sequence (looked up): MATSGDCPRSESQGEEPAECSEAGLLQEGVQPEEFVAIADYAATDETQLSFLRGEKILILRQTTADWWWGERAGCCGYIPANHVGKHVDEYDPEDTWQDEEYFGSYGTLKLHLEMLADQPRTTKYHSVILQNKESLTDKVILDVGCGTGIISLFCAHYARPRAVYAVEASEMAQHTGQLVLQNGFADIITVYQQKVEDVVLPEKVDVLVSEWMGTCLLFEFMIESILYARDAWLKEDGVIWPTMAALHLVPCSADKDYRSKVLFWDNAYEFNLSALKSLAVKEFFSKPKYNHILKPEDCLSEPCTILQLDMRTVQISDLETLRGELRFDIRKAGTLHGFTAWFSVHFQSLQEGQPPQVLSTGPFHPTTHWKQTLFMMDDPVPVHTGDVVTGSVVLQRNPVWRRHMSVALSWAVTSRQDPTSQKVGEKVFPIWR
Briefly: differential scanning fluorimetry; 5 uM PRMT2, PRMT2ΔSH3 or PRMT2H112Q with 0-500 uM peptide, 7.5x SYPRO Orange, 50 mM Hepes pH 8.0, 10 mM NaCl, 1.0 mM DTT; 30 min at room temperature, heated 25-80 °C; KD from Tm against ligand concentration, single site model. The following applies: both partners purified.

Data set [2] addresses Protein arginine N-methyltransferase 1 (PRMT1) (human) (UniProt Q99873).
Data set [3] concerns the molecule itself. Briefly: native gel or EMSA; mCer-PRMT1 and mCit-PRMT2, 1 uM each, alone or mixed, 1 h at 37 °C in methylation buffer without SAH or H3 peptide; 4-20% native PAGE, fluorescence imaging.

Chain of Protein arginine N-methyltransferase 1 (PRMT1) (human) (Q99873 other isoform, or with tags, fused parts or gaps): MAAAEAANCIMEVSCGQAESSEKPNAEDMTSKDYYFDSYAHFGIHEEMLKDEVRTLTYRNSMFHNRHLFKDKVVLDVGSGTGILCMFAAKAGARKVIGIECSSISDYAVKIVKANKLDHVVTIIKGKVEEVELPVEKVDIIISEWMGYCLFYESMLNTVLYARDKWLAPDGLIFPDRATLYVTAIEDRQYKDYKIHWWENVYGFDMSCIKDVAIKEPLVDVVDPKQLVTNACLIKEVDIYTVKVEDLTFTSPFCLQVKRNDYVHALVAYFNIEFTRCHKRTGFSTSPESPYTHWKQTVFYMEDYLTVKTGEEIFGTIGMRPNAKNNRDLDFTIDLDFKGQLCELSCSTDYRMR

B1: Histone H4 peptide (Ac-SGRGKGGKGLGKGGAKR) (peptide)
peptide: SGRGKGGKGLGKGGAKR
modifications: N-terminal acetylation
notes: N-terminal tail of histone H4; source: synthetic peptide, bought: Canada Peptide
Consider B1, for which, in data set [1], the “ΔTm at 500 μM peptide” value is 5.87 °C.

B2: Protein arginine N-methyltransferase 2 (PRMT2), full-length, wild type (enzyme)
chain: MATSGDCPRSESQGEEPAECSEAGLLQEGVQPEEFVAIADYAATDETQLSFLRGEKILILRQTTADWWWGERAGCCGYIPANHVGKHVDEYDPEDTWQDEEYFGSYGTLKLHLEMLADQPRTTKYHSVILQNKESLTDKVILDVGCGTGIISLFCAHYARPRAVYAVEASEMAQHTGQLVLQNGFADIITVYQQKVEDVVLPEKVDVLVSEWMGTCLLFEFMIESILYARDAWLKEDGVIWPTMAALHLVPCSADKDYRSKVLFWDNAYEFNLSALKSLAVKEFFSKPKYNHILKPEDCLSEPCTILQLDMRTVQISDLETLRGELRFDIRKAGTLHGFTAWFSVHFQSLQEGQPPQVLSTGPFHPTTHWKQTLFMMDDPVPVHTGDVVTGSVVLQRNPVWRRHMSVALSWAVTSRQDPTSQKVGEKVFPIWR
The molecule B2 gave a methylation signal of histone H2A at 50 ug/ml calf thymus histones, PRMT1 100 nM with 10-fold excess of PRMT2, densitometry of phosphor images in data set [2] of 3 fold.

B3: mCit-PRMT2 (mCitrine fusion of PRMT2) (enzyme, human, UniProt P55345-1 1-433, looked up)
chain: MATSGDCPRSESQGEEPAECSEAGLLQEGVQPEEFVAIADYAATDETQLSFLRGEKILILRQTTADWWWGERAGCCGYIPANHVGKHVDEYDPEDTWQDEEYFGSYGTLKLHLEMLADQPRTTKYHSVILQNKESLTDKVILDVGCGTGIISLFCAHYARPRAVYAVEASEMAQHTGQLVLQNGFADIITVYQQKVEDVVLPEKVDVLVSEWMGTCLLFEFMIESILYARDAWLKEDGVIWPTMAALHLVPCSADKDYRSKVLFWDNAYEFNLSALKSLAVKEFFSKPKYNHILKPEDCLSEPCTILQLDMRTVQISDLETLRGELRFDIRKAGTLHGFTAWFSVHFQSLQEGQPPQVLSTGPFHPTTHWKQTLFMMDDPVPVHTGDVVTGSVVLQRNPVWRRHMSVALSWAVTSRQDPTSQKVGEKVFPIWR
notes: PRMT2, human, UniProt P55345-1 printed for PRMT2 in the same sentence; cloned in pET28a(+); also called mCitrine-PRMT2; source: E. coli Arctic Express (DE3), purified (Ni-NTA, Superdex 200 SEC)
For the molecule B3, the binding result in data set [3] was “binds”.
